From publication PMC3458539 (Nucleic Acids Research, 2012)

B1: Vibrio cholerae Hfq (wild-type) (natural protein)
chain: MAKGQSLQDPFLNALRRERIPVSIYLVNGIKLQGQIESFDQFVILLKNTVNQMVYKHAISTVVPARPVSHHSGDRPASDRPAEKSEE
B2: VcHfqY25D (distal face RNA-binding mutant of Vibrio cholerae Hfq) (natural protein)
chain: MAKGQSLQDPFLNALRRERIPVSIDLVNGIKLQGQIESFDQFVILLKNTVNQMVYKHAISTVVPARPVSHHSGDRPASDRPAEKSEE
B3: VcHfqK56A (proximal face RNA-binding mutant of Vibrio cholerae Hfq) (natural protein)
chain: MAKGQSLQDPFLNALRRERIPVSIYLVNGIKLQGQIESFDQFVILLKNTVNQMVYAHAISTVVPARPVSHHSGDRPASDRPAEKSEE

Legend:
native MS = target: the molecule itself; assay: native MS
SEC = target: the molecule itself; assay: SEC

| Protein | stoichiometry N (native MS) | stoichiometry N (SEC) |
| --- | --- | --- |
| B1 | 6 |  |
| B2 |  | 6 |
| B3 |  | 6 |
